Reference: patent publication US20230279079A1 (CHANG GUNG MEMORIAL HOSPITAL LINKOU, published 2023)
Numbering of substitutions follows the chain as printed.

B1: EY 2A (antibody, V domains shown)
VH: QVQLVESGAEVTKPGDSLIISCKGSGYAFTQYWIGWVRQKPGKGLEWMAMVYPDSSAVFAGGASGVRYRPPFQGQVTISADTSVNTAYLQWDSLKASDTAMYYCVRQERGSNTWYAGNSWGQGTLVTVSS
VL: DIVMTQSPLSLPVSPGEPASISCRSSQSLLHTDAYNYLDWYLQKPGQSPQLLIYLGSTRASGVPDRFSGSGSGTDFTLKISSVKAEDVGVYYCMQALQTPGTFGQGTKLEIK
B2: EY 3B (antibody, V domains shown)
VH: B1 VH with Q1E, D16E, S129F
VL: B1 VL with D1E, M4L, L109V, K112R
B3: FD 1D (antibody, V domains shown)
VH: EVQLVESGGGVVQPGRSLRLSCAASGFTFSSYAMHWVRQAPGKGLEWVAVISYDGSNKYYADSVKGRFTISRDNSKNTLYLQMNSLRAEDTAVYYCARAGSGSYLNWFDPWGQGTLVTVSS
VL: EIVLTQSPATLSLSPGERATLSCRASQSVSSYLAWYQQKPGQAPRLLIYDASNRATGIPARFSGSGSGTDFTLTISSLEPEDFAVYYCQQRSNWPITFGQGTRLEIK
B4: EW 9B (antibody, V domains shown)
VH: EVQLVQSGAEVKKPGASVKVSCKASGYTFTSYYMHWVRQAPGQGLEWMGIINPSGGSTSYAQKFQGRVTMTRDTSTSTVYMELSSLRSEDTAVYYCAREDGVVPAANLMISLEDYYYYGMDVWGQGTTVTVSS
VL: B3 VL with I96L, Q100G, R103K, L104V, E105D
B5: FD 5E (antibody, V domains shown)
VH: EVQLVESGGVVVQPGGSLRLSCAASGFTFDDYAMHWVRQAPGKGLEWVSLISWDGGSTYYADSVKGRFTISRDNSKNSLYLQMNSLRAEDTALYYCAKDSVRFRYYYGMDVWGQGTTVTVSS
VL: B3 VL with I96L, Q100P, R103K, L104V, E105D

Experiments:
[1] = target: T1, SARS-CoV-2 nucleocapsid in fixed and permeabilised SARS-CoV-2 infected cells (SARS-CoV-2, UniProt P0DTC9 1-419); test: immunofluorescence assay
T1 construct: whole, on cells; also called N antigen

[2] = target: T2, SARS-CoV-2 nucleocapsid protein (SARS-CoV-2, UniProt P0DTC9 1-419); test: ELISA on recombinant protein
T2 construct: also called N protein

[3] = target: T3, SARS-CoV-2 spike extracellular domain (SARS-CoV-2, UniProt P0DTC2 14-1213); test: ELISA
T3 construct: extracellular domain; also called spike protein of SARS-CoV-2

[4] = target: T4, SARS-CoV-2 spike S1 subunit (SARS-CoV-2, UniProt P0DTC2 16-685); test: ELISA
T4 construct: domain: S1 subunit

[5] = target: T5, SARS-CoV-2 spike receptor binding domain (RBD) (SARS-CoV-2, UniProt P0DTC2 319-541); test: ELISA
T5 construct: also called SARS-CoV-2 RBD

[6] = target: T6, SARS-CoV-2 spike S2 subunit (SARS-CoV-2, UniProt P0DTC2 686-1213); test: ELISA
T6 construct: domain: S2 subunit

[7] = target: T7, SARS spike S1 subunit (severe acute respiratory syndrome …, UniProt P59594 14-667); test: ELISA
T7 construct: domain: S1 subunit

[8] = target: T8, MERS spike extracellular domain (Middle East respiratory syndrome …, UniProt K9N5Q8 18-1296); test: ELISA
T8 construct: extracellular domain

[9] = target: T9, Human coronavirus OC43 spike extracellular domain (human coronavirus OC43, UniProt P36334 14-1297); test: ELISA
T9 construct: extracellular domain

Binder	binding result [1]	binding result [2]	binding result [3]	binding result [4]	binding result [5]	binding result [6]	binding result [7]	binding result [8]	binding result [9]
B1	binds	binds							
B2	binds	binds							
B3			binds	no binding	no binding	binds	binds	binds	binds
B4			binds		no binding	no binding	no binding	no binding	no binding
B5			binds		no binding	no binding	no binding	no binding	no binding
